# Data published in article PMC4462998, “Cell age dependent concentration of Escherichia coli divisome proteins analyzed with ImageJ and ObjectJ” (Frontiers in Microbiology, 2015).
# B1: FtsB (natural protein, Escherichia coli, UniProt P0A6S5 1-103, looked up)
# chain: MGKLTLLLLAILVWLQYSLWFGKNGIHDYTRVNDDVAAQQATNAKLKARNDQLFAEIDDLNGGQEALEERARNELSMTRPGETFYRLVPDASKRAQSAGQNNR
# notes: FtsB of Escherichia coli
# Biological target: T1, FtsQ (Escherichia coli, UniProt P06136 1-276)
# T1 construct: FtsQ of Escherichia coli
# T1 sequence (P06136 whole entry): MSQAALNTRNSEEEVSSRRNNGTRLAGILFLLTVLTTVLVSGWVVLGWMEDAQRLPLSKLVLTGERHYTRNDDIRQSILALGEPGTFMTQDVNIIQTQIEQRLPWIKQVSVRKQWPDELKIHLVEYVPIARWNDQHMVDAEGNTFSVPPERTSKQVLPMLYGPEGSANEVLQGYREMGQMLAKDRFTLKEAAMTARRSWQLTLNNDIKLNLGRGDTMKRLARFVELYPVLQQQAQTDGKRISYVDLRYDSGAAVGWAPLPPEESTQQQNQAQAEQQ
# Assay: not stated; unpublished results (Luirink and den Blaauwen); method not given
binder,measurement,value
B1,stoichiometry N,1
